Assay results published in patent publication US20100028366A1, “SYNERGISTIC EFFECT BETWEEN A […] AND ANOTHER OXIDATIVE INDUCING SYSTEM FOR TREATING TUMORS” (priority 2005, published 2010).

Tests used:
W&Wlis cells [1] = experiment: AIF location study by immunofluorescence; format: cell-based, canine; settings: 5 mEU/ml glucose oxidase, with or without 500 μg/ml linamarin
Method: Nevertheless, the activation of AIF could be caused by a mechanism that is PARP-1-independent (Cregan, 2004). AIF is a protein residing in the mitochondrion and when activated, it translocates to the nucleus in which it activates apoptosis. The possible translocation of AIF was analyzed by immunofluorescence with antibodies specific against AIF of W&Wlis cells treated with the therapy.
The cells were seeded on cover slips in 24-well plates and were treated according to the requirements of each experiment. After the appropriate incubation time for each assay, the cells were fixed with 4% paraformaldehyde for 30 minutes at room temperature or methanol at −20° C. for 10 minutes. The samples were subsequently permeabilized 10 minutes with PBS supplemented with triton X-100 or 0.1% sodium dodecyl sulfate (SDS) and were blocked by incubating for 30 minutes with PBS with 0.1% triton X-100 and with 1% bovine serum albumin, or PBS with 0.01% SDS and a 10% fetal calf serum. They were subsequently incubated for 45 minutes with the primary antibody at room temperature or overnight at 4° C. The antibodies used were anti-linamarase (1/200, supplied by Monica Hughes) and anti-AIF (1/50, Cell Signaling Technology). The secondary antibody used was anti-rabbit IgG coupled to fluorescein (1/50, Amersham Pharmacia Biotech). […]

W&Wlis cells [2] = experiment: Analysis of the type of death by flow cytometry (annexin V-FITC/propidium iodide); format: cell-based, canine
Method: The annexin V-FITC and propidium iodide assay was performed in parallel by flow cytometry. The pattern of death of the system was analyzed when adding 5 mEU/ml of glucose oxidase and the combined therapy (5 mEU/ml of GO and 500 μg/ml of linamarin) at 48 hours, followed by the control of untreated cells and of the cells incubated with 500 μg/ml of linamarin at 96 hours. Furthermore, another group of cells was subjected to the same conditions except 10 mM of N-acetyl cysteine (NAC) were added. The cells treated with the combined therapy were subsequently studied at 48 hours in the absence and presence of 100 μM of Z-VAD-fmk, followed by the control of treatment of the cells with UV in the same conditions. Finally, the cells treated with the combined therapy were shown at 48 hours in the absence and presence of 300 μM of 1,5-isoquinolinediol (DIQ), observing that the pattern of death is not modified when PARP-1 is inhibited (FIG. 4).
10^5 W&Wlis cells were seeded in test tubes with a screw-on cap and flat side (Nunc). After 24 hours, different amounts of linamarin (50, 200 or 500 μg/ml) and glucose oxidase (5 mEU/ml) were added in the specified cases. In the appropriate assays, the medium was supplemented with N-acetyl cysteine (10 mM), 1,5-isoquinolinediol (300 μM) or Z-VAD-fmk (100 μM). […] They were centrifuged for 5 minutes at 1200 rpm and the cell precipitate was washed first with PBS and then with binding buffer (0.1 M Hepes/NaOH pH 7.4, 1.4 M NaCl and 25 mM CaCl2). The cells were again precipitated and resuspended in 100 μl of binding buffer supplemented with 5 μl of annexin V-FITC and 2.5 μg/ml of propidium iodide. The samples were incubated for 15 minutes in the dark. Data acquisition and analysis was carried out by means of a FACSCalibur flow cytometer (DB Biosciences) with the Cell Quest program.

W&Wlis cells [3] = experiment: Determination of the extracellular peroxide concentration; format: cell-based, canine; settings: 48 hours; 0.5 mg/ml of linamarin and/or 5 mEU/ml of glucose oxidase; control approximately 20 μM
Method: The H2O2 levels (FIG. 3B) produced extracellularly in the combined therapy were further studied in the invention. To do so, the amount of H2O2 present in the culture medium of W&Wlis cells at 48 hours in a treatment with 0.5 mg/ml of linamarin, in the presence of 5 mEU/ml of glucose oxidase or in the combination of both treatments, was analyzed although positive results were also obtained using other concentrations.
The samples to be analyzed were diluted in 1 ml of 0.1 M phosphate buffer pH 7.4. Then 3.7 EU/ml of peroxidase (Sigma-Aldrich, St. Louis, USA) and 0.1 mg/ml of ortho-dianisidine (Sigma-Aldrich, St. Louis, USA) were added. The samples were incubated at room temperature for 30 minutes and absorbances at 436 nm were determined. The H2O2 concentration was obtained by interpolation of the data obtained in a standard line performed with increasing concentrations of H2O2.

Swiss mice = experiment: Toxicity of glucose oxidase in Swiss mice; format: in vivo; settings: intraperitoneally and intravenously
Method: The toxicity of glucose oxidase was evaluated in Swiss mice weighing about 20 grams, intraperitoneally and intravenously inoculated with different amounts of the purified enzyme. […] This allowed establishing an optimal dose range for GO for the combined therapy in this type of animal.

W&Wlis cells [4] = experiment: Measurement of intracellular ATP; format: cell-based, canine; settings: linamarin (500 μg/ml) and/or glucose oxidase (5 mEU/ml), over time, versus untreated cells
Method: The levels of intracellular energy in the form of ATP decrease when a blockage of the mitochondrial electron transport chain occurs since it is the essential source of obtaining energy of the cells. […] This effect is due to the fact that the maximum H2O2 production by glucose oxidase occurs at short times because the cells have the ability of detoxifying the peroxide and due to the fact that glucose oxidase is inactivated over time by the serum proteins.
10^5 W&Wlis cells were seeded in test tubes with a screw-on cap and flat side (Nunc). After 24 hours, the medium was changed, adding linamarin (500 μg/ml) and glucose oxidase (5 mEU/ml) where appropriate. After 4, 8, 12, 24, 48 or 72 hours, the cells were centrifuged and processed following the instructions of the ATP Bioluminescence Assay Kit CLS II, of Roche Applied Science. The luminescence was analyzed with a Monolight 2010 luminometer (Analytical Luminescence Laboratory, San Diego) and expressed in relative light units (RLU).

W&Wlis cells [5] = experiment: DNA content analysis by flow cytometry, labeling with propidium iodide; format: cell-based, canine; set-up: unit not given here; settings: 0 μg lin, 5 mEU/ml GO
W&Wlis cells [6] = experiment: Structural modifications of the mitochondrion (pDsRed2-mito, confocal microscopy); format: cell-based, canine; settings: linamarin 500 μg/ml from 48 hours; glucose oxidase 5 mEU/ml; combination after 24 hours
Method: For the purpose of studying the mitochondrial dynamics occurring as a result of the oxidative stress caused by the activity of the claimed system, W&Wlis cells were stably transfected with the plasmid pdsRed2-mito (Clontech) containing the gene of the one red fluorescent protein carried by a transport signal peptide to the mitochondrion. This allowed viewing the mitochondria of cells treated with linamarin and glucose oxidase by fluorescence microscopy. […] This effect starts to be observed 48 hours after treatment with linamarin (FIG. 1B) and becomes more pronounced after 72 hours, a slight swelling of the fragments (FIG. 1C) being observed.
To study the structural modifications of the mitochondrion during therapy, the W&W and W&Wlis cells were transfected with the plasmid pDsRed2-mito (Clontech, BD Bioscience) containing the gene of a red fluorescent protein which is expressed exclusively in mitochondria. The transfection was performed similarly to the previous section and clones were selected by resistance to neomycin (0.75 and 1.5 mg/ml respectively). The cells from stable expression clones of the protein were seeded in multiwell plates on cover slips (2.5×10^4) and were treated with linamarin (50, 200 or 500 μg/ml) and glucose oxidase (5 mEU/ml). After the suitable incubation time for each experiment (24, 48 or 72 hours) elapsed, the cells were fixed with 4% paraformaldehyde. […]

[7] = 0 μg lin, 5 mEU/ml GO, 48 hours, NAC (10 mM)
[8] = Table 4, 0 μg lin, 5 mEU/ml GO, 48 hours, Z-VAD-fmk (100 μM)
[9] = Table 4, 0 μg lin, 5 mEU/ml GO, 48 hours, control (no Z-VAD-fmk)
[10] = Table 5, GO, 32 hours, DIQ (300 μM)
[11] = Table 5, GO, 32 hours, control (no DIQ)
[12] = Table 5, GO, 48 hours, DIQ (300 μM)
[13] = Table 5, GO, 48 hours, control (no DIQ)

B1: GO: glucose oxidase enzyme catalyzing the conversion of glucose into gluconic acid, generating hydrogen peroxide (protein, UniProt P13006 17-605, looked up)
Glucose oxidase: LPHYIRSNGIEASLLTDPKDVSGRTVDYIIAGGGLTGLTTAARLTENPNISVLVIESGSYESDRGPIIEDLNAYGDIFGSSVDHAYETVELATNNQTALIRSGNGLGGSTLVNGGTWTRPHKAQVDSWETVFGNEGWNWDNVAAYSLQAERARAPNAKQIAAGHYFNASCHGVNGTVHAGPRDTGDDYSPIVKALMSAVEDRGVPTKKDFGCGDPHGVSMFPNTLHEDQVRSDAAREWLLPNYQRPNLQVLTGQYVGKVLLSQNGTTPRAVGVEFGTHKGNTHNVYAKHEVLLAAGSAVSPTILEYSGIGMKSILEPLGIDTVVDLPVGLNLQDQTTATVRSRITSAGAGQGQAAWFATFNETFGDYSEKAHELLNTKLEQWAEEAVARGGFHNTTALLIQYENYRDWIVNHNVAYSELFLDTAGVASFDVWDLLPFTRGYVHILDKDPYLHHFAYDPQYFLNELDLLGQAAATQLARNISNSGAMQTYFAGETIPGDNLAYDADLSAWTEYIPYHFRPNYHGVGTCSMMPKEMGGVVDNAARVYGVQGLRVIDGSIPPTQMSSHVMTVFYAMALKISDAILEDYASMQ
AIF location (W&Wlis cells [1]): typically mitochondrial AIF pattern
Apoptosis (W&Wlis cells [2]; 0 μg lin, 5 mEU/ml GO, 24 h): 5.98
Necrosis (W&Wlis cells [2]; 0 μg lin, 5 mEU/ml GO, 24 h): 12.27
Apoptosis (W&Wlis cells [2]; 0 μg lin, 5 mEU/ml GO, 48 h): 8.34
Necrosis (W&Wlis cells [2]; 0 μg lin, 5 mEU/ml GO, 48 h): 4.50
Apoptosis (W&Wlis cells [2]; [7]): 5.98
Necrosis (W&Wlis cells [2]; [7]): 5.42
Apoptosis (W&Wlis cells [2]; [8]): 13.94
Necrosis (W&Wlis cells [2]; [8]): 18.92
Apoptosis (W&Wlis cells [2]; [9]): 3.27
Necrosis (W&Wlis cells [2]; [9]): 29.59
Apoptosis (W&Wlis cells [2]; [10]): 9.32
Necrosis (W&Wlis cells [2]; [10]): 16.69
Apoptosis (W&Wlis cells [2]; [11]): 6.50
Necrosis (W&Wlis cells [2]; [11]): 27.11
Apoptosis (W&Wlis cells [2]; [12]): 17.52
Necrosis (W&Wlis cells [2]; [12]): 20.89
Apoptosis (W&Wlis cells [2]; [13]): 12.92
Necrosis (W&Wlis cells [2]; [13]): 31.87
extracellular H2O2 concentration in the culture medium (W&Wlis cells [3]): did not cause significant variations
toxicity (Swiss mice; daily doses between 0.25 and 0.1 EU/g): no harmful effect
toxicity (Swiss mice; doses of 1 and 0.5 EU/g, first 24 hours post-administration): lethal effect
intracellular ATP levels (W&Wlis cells [4]): moderate and transitory reduction of ATP after 6 hours
DNA content by flow cytometry, labeling with propidium iodide (W&Wlis cells [5]; 24 hours): 1.94
DNA content by flow cytometry, labeling with propidium iodide (W&Wlis cells [5]; 48 hours): 1.03
mitochondrial pattern (W&Wlis cells [6]): did not cause any structural change in most of the mitochondria
